Assay results as given in patent US20220306753A1 (JN BIOSCIENCES, published 2022).

Experiments:
[1] = target: T1, Human B7-1/CD80 Protein, Mouse IgG2a Tag (human, UniProt P33681 35-242); test: ELISA, plate coated with 1 µg/ml CD80 mouse IgG2a tag protein, anti-human kappa-HRP detection
T1 construct: Bought protein coated on the ELISA plate; also called Cat. No. B71-H52A4, Acro Biosystems; not shown: mouse IgG2a tag of the bought protein
T1 sequence (looked up): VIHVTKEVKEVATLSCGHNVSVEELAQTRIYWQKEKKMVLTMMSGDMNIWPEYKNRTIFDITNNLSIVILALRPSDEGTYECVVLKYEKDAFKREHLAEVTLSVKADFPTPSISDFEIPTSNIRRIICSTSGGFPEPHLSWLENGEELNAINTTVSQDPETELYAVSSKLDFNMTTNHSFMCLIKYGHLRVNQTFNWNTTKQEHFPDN
Procedure: (§1) Binding of HuABC2-CTLA4 and HuABC2-CTLA4YE to human CD122, CD80 and CD86 was analyzed by ELISA. Wells of an ELISA plate were coated with 1 μg/ml of either CD122 (Human IL-2R beta/CD122 Protein, Fc Tag; Cat. No. ILB-H5253, Acro Biosystems, Newark, Del.), CD80 (Human B7-1/CD80 Protein, Mouse IgG2a Tag; Cat. No. B71-H52A4, Acro Biosystems) or CD86 (Human B7-2/CD86 Protein, Fc Tag; Cat. No. CD6-H5257, Acro Biosystems) in PBS. After blocking with Blocking Buffer and washing the wells with Wash Buffer, transiently expressed HuABC2-CTLA4 and HuABC2-CTLA4YE at 0.5 μg/ml and serial 2-fold dilutions in ELISA Buffer were applied to the wells in duplicates. Purified HuABC2 at 0.5 μg/mland serial 2-fold dilutions was used as a control. After incubation for 1 hr at room temperature and washing with Wash Buffer, bound antibodies were detected using HRP-conjugated goat anti-human kappa chain polyclonal antibody. After incubation for 30 min and washing with Wash Buffer, color development was initiated by adding ABTS substrate and stopped with 2% oxalic acid. Absorbance was read at 405 nm.

[2] = target: T2, Human B7-2/CD86 Protein, Fc Tag (human, UniProt P42081 24-247); test: ELISA, plate coated with 1 µg/ml CD86 Fc tag protein, anti-human kappa-HRP detection
T2 construct: Bought protein coated on the ELISA plate; also called Cat. No. CD6-H5257, Acro Biosystems; not shown: Fc tag of the bought protein
T2 sequence (looked up): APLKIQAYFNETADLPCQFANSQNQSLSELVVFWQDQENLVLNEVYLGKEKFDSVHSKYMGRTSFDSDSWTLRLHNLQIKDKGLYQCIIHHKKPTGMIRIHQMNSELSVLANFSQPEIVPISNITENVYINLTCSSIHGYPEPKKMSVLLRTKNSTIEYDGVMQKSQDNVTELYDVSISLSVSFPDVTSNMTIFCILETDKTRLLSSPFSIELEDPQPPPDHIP
Procedure: as §1

[3] = target: T3, Human IL-2R beta/CD122 Protein, Fc Tag (human, UniProt P14784 27-239); test: ELISA, plate coated with 1 µg/ml CD122 Fc tag protein, binder from 0.5 µg/ml in 2-fold dilutions, anti-human kappa-HRP
T3 construct: Bought protein coated on the ELISA plate; also called Cat. No. ILB-H5253, Acro Biosystems; not shown: Fc tag of the bought protein
T3 sequence (looked up): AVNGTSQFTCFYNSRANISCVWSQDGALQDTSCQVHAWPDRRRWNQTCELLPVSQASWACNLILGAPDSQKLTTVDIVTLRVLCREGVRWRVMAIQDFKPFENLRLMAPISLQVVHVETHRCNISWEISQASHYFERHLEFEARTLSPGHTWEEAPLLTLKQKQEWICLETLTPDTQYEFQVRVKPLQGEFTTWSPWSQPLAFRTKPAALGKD
Procedure: as §1

binding result [3]: binds
B1: HuABC2 (antibody, human IgG1, kappa, V domains shown)
VH: EVQLVESGGGLVQPGGSLRLSCAASGFTFSDFYMEWVRQAPGKGLEWIAASRNKANDYTTEYSASVKGRFIVSRDDSKNSLYLQMNSLKTEDTAVYYCARSYYRYDGMDYWGQGTTVTVSS
VL: EIVLTQSPATLSLSPGERATLSCSAISSVSYMYWYQQKPGQAPRLLIYDTSNLVSGVPARFSGSGSGTDYTLTISSLEPEDFAVYYCQQWNTYPYTFGGGTKVEIKR
notes: Human IgG1/kappa, wild-type Fc, expressed from pHuABC2p in CHO-K1 and purified on protein A; also called humanized anti-CD122 IgG1/kappa monoclonal antibody
binding result [1]: no binding (tested: 0.5 µg/ml and serial 2-fold dilutions)
binding result [2]: no binding (tested: 0.5 µg/ml and serial 2-fold dilutions)
